Results reported in the supplement of paper PMC10567573.

B1: TMEM40 (parent)
chain: YGETDFHKQDGKAGLFSQEQYERN

Variants of: B1
Assay: protein stability index of a GFP-peptide fusion (GPS, HEK-293T) (PSI 1-6); higher = more stable
Conditions: c terminus: a fixed tail appended
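Also: lentivirally expressed fusions sorted by FACS into six bins by GFP to DsRed ratio, PSI derived from sequencing read proportions per bin multiplied by bin number.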

Variant | protein stability index
YGETDFHKQDGKVGLFSQEQYERN | 4.27
YGETDFHKQDGKKGLFSQEQYERN | 4.04
YGETDFHKQDGKRGLFSQEQYERN | 3.96
YGETDFHKQDGKCGLFSQEQYERN | 3.28
YGETDFHKQDGKGGLFSQEQYERN | 4.08
YGETDFHKQDGKYGLFSQEQYERN | 3.41
YGETDFHKQDGKMGLFSQEQYERN | 3.65
YGETDFHKQDGKTGLFSQEQYERN | 4.28
YGETDFHKQDGKLGLFSQEQYERN | 4.07
YGETDFHKQDGKNGLFSQEQYERN | 4.54
YGETDFHKQDGKPGLFSQEQYERN | 3.54
YGETDFHKQDGKIGLFSQEQYERN | 4.03
YGETDFHKQDGKSGLFSQEQYERN | 3.83
YGETDFHKQDGKDGLFSQEQYERN | 4.28
YGETDFHKQDGKEGLFSQEQYERN | 4.33
YGETDFHKQDGKWGLFSQEQYERN | 3.87
YGETDFHKQDGKQGLFSQEQYERN | 3.93
YGETDFHKQDGKFGLFSQEQYERN | 3.83
YGETDFHKQDGKAGLFSQMQYERN | 3.15
YGETDFHKQDGKAGLFSQAQYERN | 3.54
YGETDFHKQDGKAGLFSQCQYERN | 3.48
YGETDFHKQDGKAGLFSQTQYERN | 3.73
YGETDFHKQDGKAGLFSQPQYERN | 3.72
YGETDFHKQDGKAGLFSQWQYERN | 2.64

Variant | protein stability index
YGETDFHKQDGKAGLFSQGQYERN | 3.66
YGETDFHKQDGKAGLFSQKQYERN | 3.23
YGETDFHKQDGKAGLFSQYQYERN | 3.15
YGETDFHKQDGKAGLFSQDQYERN | 4.45
YGETDFHKQDGKAGLFSQLQYERN | 2.21
YGETDFHKQDGKAGLFSQHQYERN | 3.29
YGETDFHKQDGKAGLFSQRQYERN | 3.49
YGETDFHKQDGKAGLFSQIQYERN | 2.23
YGETDFHKQDGKAGLFSQSQYERN | 3.6
YGETDFHKQDGKAGLFSQNQYERN | 3.9
YGETDFHKQDGKAGLFSQFQYERN | 2.54
YGETDFHKQDGKAGLFSQQQYERN | 3.7
YGETDFHKQDGKAGLFSQVQYERN | 3.22
YGETDFHKQDGKAGLFSQEHYERN | 4.01
YGETDFHKQDGKAGLFSQEAYERN | 4.32
YGETDFHKQDGKAGLFSQEEYERN | 4.45
YGETDFHKQDGKAGLFSQEMYERN | 3.92
YGETDFHKQDGKAGLFSQEVYERN | 3.66
YGETDFHKQDGKAGLFSQEKYERN | 3.79
YGETDFHKQDGKAGLFSQEGYERN | 3.48
YGETDFHKQDGKAGLFSQENYERN | 4.12
YGETDFHKQDGKAGLFSQESYERN | 4.3
YGETDFHKQDGKAGLFSQEPYERN | 3.55
YGETDFHKQDGKAGLFSQEDYERN | 4.71

Variant | protein stability index
YGETDFHKQDGKAGLFSQEFYERN | 3.41
YGETDFHKQDGKAGLFSQERYERN | 3.92
YGETDFHKQDGKAGLFSQEYYERN | 3.71
YGETDFHKQDGKAGLFSQEIYERN | 3.85
YGETDFHKQDGKAGLFSQELYERN | 3.42
YGETDFHKQDGKAGLFSQECYERN | 3.5
YGETDFHKQDGKAGLFSQEWYERN | 3
YGETDFHKQDGKAGLFSQETYERN | 4.15
YGETDFHKQDGKAGLFSQEQEERN | 4.35
YGETDFHKQDGKAGLFSQEQAERN | 4.04
YGETDFHKQDGKAGLFSQEQMERN | 3.92
YGETDFHKQDGKAGLFSQEQIERN | 4.65
YGETDFHKQDGKAGLFSQEQGERN | 4.8
YGETDFHKQDGKAGLFSQEQCERN | 3.95
YGETDFHKQDGKAGLFSQEQDERN | 4.95
YGETDFHKQDGKAGLFSQEQSERN | 4.63
YGETDFHKQDGKAGLFSQEQTERN | 5.02
YGETDFHKQDGKAGLFSQEQKERN | 4.54
YGETDFHKQDGKAGLFSQEQLERN | 4.07
YGETDFHKQDGKAGLFSQEQVERN | 4.38
YGETDFHKQDGKAGLFSQEQHERN | 4.73
YGETDFHKQDGKAGLFSQEQFERN | 4.25
YGETDFHKQDGKAGLFSQEQQERN | 4.44
YGETDFHKQDGKAGLFSQEQRERN | 5.25

Variant | protein stability index
YGETDFHKQDGKAGLFSQEQWERN | 4.09
YGETDFHKQDGKAGLFSQEQPERN | 4.32
YGETDFHKQDGKAGLFSQEQNERN | 4.47
YGETDFHKQDGKAGLLSQEQYERN | 4.47
YGETDFHKQDGKAGLVSQEQYERN | 4.65
YGETDFHKQDGKAGLQSQEQYERN | 5.1
YGETDFHKQDGKAGLCSQEQYERN | 3.78
YGETDFHKQDGKAGLGSQEQYERN | 4.84
YGETDFHKQDGKAGLASQEQYERN | 4.97
YGETDFHKQDGKAGLRSQEQYERN | 4.81
YGETDFHKQDGKAGLSSQEQYERN | 4.88
YGETDFHKQDGKAGLNSQEQYERN | 4.91
YGETDFHKQDGKAGLTSQEQYERN | 4.58
YGETDFHKQDGKAGLYSQEQYERN | 5.04
YGETDFHKQDGKAGLHSQEQYERN | 5.06
YGETDFHKQDGKAGLPSQEQYERN | 5.02
YGETDFHKQDGKAGLKSQEQYERN | 4.38
YGETDFHKQDGKAGLISQEQYERN | 4.58
YGETDFHKQDGKAGLWSQEQYERN | 3.08
YGETDFHKQDGKAGLDSQEQYERN | 5.25
YGETDFHKQDGKAGLMSQEQYERN | 4.53
YGETDFHKQDGKAGLESQEQYERN | 4.3
